The record followed here is patent publication EP0997477B1.

Read-outs that look alike come from different tables or passages of the source.

In assay [1] the target is membrane-bound single-chain I-A^d-OVA (SCT1) on transfected NSO cells (mouse (I-A^d); chicken (OVA peptide)). Kind of assay: flow cytometry, FITC-conjugated 10-3.6 control (1:100) on T6 (SCT1-transfectant). For orientation: A flow cytometer gives signals particle by particle.
Assay [2] shares this target. The experiment in a line: flow cytometry, FITC-conjugated 10-3.6 control (1:100) on T2 (SCT1-transfectant).
For assay [3] the target is unchanged. The experiment in a line: flow cytometry, FITC-conjugated 10-3.6 control (1:100) on T12 (SCT1-transfectant).
The target in assay [4] is T cell receptor of the murine T cell hybridoma DO11.10, specific for OVA 323-339 presented by I-A^d. The experiment in a line: cell-based or functional assay.
Assay [5] has the same target. Kind of assay: cell-based or functional assay. This is another data set of the same source.
Assay [6] concerns the target full length I-A^d/OVA 323-339 MHC class II fusion complex (pJRS165.1) expressed on NSO cells (mouse; chicken) (UniProt P04228). Kind of assay: flow cytometry, FITC-conjugated anti-IA^k control (1:100) on clone NSO/IA^d/OVA.B4.
The target is the same in assay [7]. Kind of assay: flow cytometry, FITC-conjugated anti-IA^k control (1:100) on clone NSO/IA^d/OVA.B5.
Assay [8] has as its target murine Class II MHC molecule I-A^d on A20.1-11 cells (mouse) (UniProt P04228). The experiment in a line: flow cytometry, FITC-conjugated anti-IA^k control (1:100) on A20.1 cells (+ control).
The target in assay [9] is full length I-A^d/OVA 323-339 MHC class II fusion complex (pJRS165.1) expressed on NSO cells (mouse; chicken) (UniProt P04228). Kind of assay: flow cytometry, FITC-conjugated anti-IA^k control (1:100) on clone NSO/IA^d/OVA.A4.
Assay [10] has the same target. The experiment in a line: flow cytometry, FITC-conjugated anti-IA^k control (1:100) on clone NSO/IA^d/OVA.B2.
Assay [11] concerns the target soluble single-chain I-A^d-OVA from insect (SF9) cells (SSC1 gene in pMBSC1.2) (mouse (I-A^d); chicken (OVA peptide)). The experiment in a line: I-A^d sandwich ELISA (capture M5/114, detection biotinylated AMS-32.1), cotransfection supernatant undiluted.
For assay [12], the target named is membrane-bound single-chain I-A^d-OVA (SCT1) on transfected NSO cells (mouse (I-A^d); chicken (OVA peptide)). The experiment in a line: flow cytometry, FITC-conjugated AMS 32.1 (1:100) on T12 (SCT1-transfectant).
Assay [13] has as its target soluble single-chain I-A^d-OVA from insect (SF9) cells (SSC1 gene in pMBSC1.2) (mouse (I-A^d); chicken (OVA peptide)). The experiment in a line: I-A^d sandwich ELISA (capture M5/114, detection biotinylated AMS-32.1), cotransfection supernatant 1:2.
Assay [14] shares this target. Kind of assay: I-A^d sandwich ELISA (capture M5/114, detection biotinylated AMS-32.1), supernatant of virus clone C6. (In general: In an ELISA, binding on a coated surface is turned into a signal by an enzyme label.)
In assay [15] the target is Neuron Specific Enolase (NSE) in supernatant of SF9 cells infected with a recombinant Baculovirus. The experiment in a line: I-A^d sandwich ELISA (capture M5/114, detection biotinylated AMS-32.1), NSE baculovirus supernatant as negative control.
The target in assay [16] is membrane-bound single-chain I-A^d-OVA (SCT1) on transfected NSO cells (mouse (I-A^d); chicken (OVA peptide)). Kind of assay: flow cytometry, FITC-conjugated AMS 32.1 (1:100) on T6 (SCT1-transfectant).
Assay [17] addresses soluble single-chain I-A^d-OVA from insect (SF9) cells (SSC1 gene in pMBSC1.2) (mouse (I-A^d); chicken (OVA peptide)). Kind of assay: I-A^d sandwich ELISA (capture M5/114, detection biotinylated AMS-32.1), cotransfection supernatant 1:4.
Assay [18] has as its target membrane-bound single-chain I-A^d-OVA (SCT1) on transfected NSO cells (mouse (I-A^d); chicken (OVA peptide)). Kind of assay: flow cytometry, FITC-conjugated AMS 32.1 (1:100) on T2 (SCT1-transfectant).
Assay [19] deals with soluble single-chain I-A^d-OVA from insect (SF9) cells (SSC1 gene in pMBSC1.2) (mouse (I-A^d); chicken (OVA peptide)). The experiment in a line: I-A^d sandwich ELISA (capture M5/114, detection biotinylated AMS-32.1), supernatant of virus clone F8.
The target in assay [20] is soluble single-chain I-A^d-OVA with EE antibody tag (SCE1) secreted by transfected NSO cells (mouse (I-A^d); chicken (OVA peptide)). Kind of assay: I-A^d sandwich ELISA (capture M5/114, detection biotinylated AMS-32.1), undiluted supernatant of E10 (SCE1 transfectant).
In assay [21] the target is soluble single-chain I-A^d-OVA from insect (SF9) cells (SSC1 gene in pMBSC1.2) (mouse (I-A^d); chicken (OVA peptide)). The experiment in a line: I-A^d sandwich ELISA (capture M5/114, detection biotinylated AMS-32.1), cotransfection supernatant 1:8.
Assay [22] shares this target. Kind of assay: I-A^d sandwich ELISA (capture M5/114, detection biotinylated AMS-32.1), sc I-A^d-OVA from insect cell culture (positive control).
The target in assay [23] is soluble single-chain I-A^d-OVA with EE antibody tag (SCE1) secreted by transfected NSO cells (mouse (I-A^d); chicken (OVA peptide)). The experiment in a line: I-A^d sandwich ELISA (capture M5/114, detection biotinylated AMS-32.1), undiluted supernatant of E11 (SCE1 transfectant).

Chain of UniProt P04228 (P04228 24-256, chain 1 of 2): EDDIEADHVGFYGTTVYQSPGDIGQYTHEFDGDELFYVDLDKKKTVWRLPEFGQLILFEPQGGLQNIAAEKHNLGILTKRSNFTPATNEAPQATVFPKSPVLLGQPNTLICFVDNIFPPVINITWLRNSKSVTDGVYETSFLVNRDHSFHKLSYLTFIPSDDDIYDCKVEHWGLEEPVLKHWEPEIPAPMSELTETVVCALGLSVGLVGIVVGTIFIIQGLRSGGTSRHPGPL
Chain of UniProt P04228 (P01921 28-265, chain 2 of 2, further chain): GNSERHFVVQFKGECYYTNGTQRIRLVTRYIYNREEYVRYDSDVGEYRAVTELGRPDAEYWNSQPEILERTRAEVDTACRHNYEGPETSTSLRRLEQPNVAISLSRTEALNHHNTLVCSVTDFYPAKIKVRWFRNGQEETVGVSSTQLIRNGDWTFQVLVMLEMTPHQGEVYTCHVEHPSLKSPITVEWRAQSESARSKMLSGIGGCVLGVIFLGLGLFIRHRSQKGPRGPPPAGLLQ

On to “isotype matched FITC-conjugated anti-I-A^k antibody, 10-3.6 (PharMingen)”, for which the Mean Fluorescence (mean fluorescence) amounted to 45.1 in assay [1], 22 in [2] and 45.9 in [3].
In the case of “OVA 323-339 peptide presented by I-A^d on A20 cells (from UniProt P04228 24-256; P01921 28-265) (peptide-MHC)”, the values for the IL-2 ELISA result (Absorbance); A20+OVA 323-339 peptide (positive control) in [4] and in assay [5] were 1.33 absorbance and 1.45 absorbance, respectively.
In assay [4], “soluble single-chain I-A^d-OVA from insect (SF9) cells (SSC1 gene in pMBSC1.2) (peptide-MHC)” came in with an IL-2 concentration in DO11 super; immobilized sc IA^d-OVA 78 ng/well of 45 U/ml, an IL-2 concentration in DO11 super; immobilized sc IA^d-OVA 156 ng/well of 100 U/ml, an IL-2 concentration in DO11 super; immobilized sc IA^d-OVA 312 ng/well of 109 U/ml and an IL-2 concentration in DO11 super; immobilized sc IA^d-OVA 625 ng/well of 116 U/ml. Moreover, in assay [4], the IL-2 concentration in DO11 super; immobilized sc IA^d-OVA 1250 ng/well worked out at 126 U/ml, the IL-2 concentration in DO11 super; immobilized sc IA^d-OVA 2500 ng/well came to 143 U/ml, the IL-2 concentration in DO11 super; immobilized scIA^d-OVA 39 ng/well (extended dilution) was 0 U/ml and the IL-2 concentration in DO11 super; immobilized scIA^d-OVA 78 ng/well (extended dilution) came out at 17 U/ml. In [4], this substance came in with an IL-2 concentration in DO11 super; immobilized scIA^d-OVA 156 ng/well (extended dilution) of 24 U/ml, an IL-2 concentration in DO11 super; immobilized scIA^d-OVA 312 ng/well (extended dilution) of 35 U/ml, an IL-2 concentration in DO11 super; immobilized scIA^d-OVA 625 ng/well (extended dilution) of 38 U/ml and an IL-4 concentration in DO11 super; immobilized sc IA^d-OVA 78 ng/well of 7 U/ml. In addition, in assay [4], the IL-4 concentration in DO11 super; immobilized sc IA^d-OVA 156 ng/well amounted to 10 U/ml, the IL-4 concentration in DO11 super; immobilized sc IA^d-OVA 312 ng/well turned out to be 16 U/ml, the IL-4 concentration in DO11 super; immobilized sc IA^d-OVA 625 ng/well was determined as 15 U/ml and the IL-4 concentration in DO11 super; immobilized sc IA^d-OVA 1250 ng/well is 20 U/ml. In assay [4], this substance gave an IL-4 concentration in DO11 super; immobilized sc IA^d-OVA 2500 ng/well of 23 U/ml, an IL-r [IL-4] concentration in DO11 super; immobilized scIA^d-OVA 39 ng/well (extended dilution) of 0 U/ml, an IL-r [IL-4] concentration in DO11 super; immobilized scIA^d-OVA 78 ng/well (extended dilution) of 0.8 U/ml and an IL-r [IL-4] concentration in DO11 super; immobilized scIA^d-OVA 156 ng/well (extended dilution) of 0.9 U/ml. In assay [4], this substance yielded an IL-r [IL-4] concentration in DO11 super; immobilized scIA^d-OVA 312 ng/well (extended dilution) of 1.5 U/ml and an IL-r [IL-4] concentration in DO11 super; immobilized scIA^d-OVA 625 ng/well (extended dilution) of 2 U/ml.
Take “membrane-bound single-chain I-A^d-OVA (SCT1) on transfected NSO cells (peptide-MHC)”: in assay [4], the IL-2 ELISA result (Absorbance); antigen presenting cell T2 (SCT1 transfectant) worked out at 0.758 absorbance and the IL-2 ELISA result (Absorbance); antigen presenting cell T6 (SCT1 transfectant) came to 0.307 absorbance. For the same substance, in assay [5], the IL-2 ELISA result (Absorbance); antigen presenting cell T12 (SCT1 transfectant) amounted to 1.03 absorbance.
With “FITC-conjugated anti-IA^k antibody (Pharmingen), isotype matched irrelevant antibody”, the peak channel fluorescence in [6] is 11 peak channel; in assay [7], 10 peak channel; in assay [8], 5 peak channel; in assay [9] it was 34 peak channel; in [10], 14 peak channel.
For “AMS-32.1 anti-IA^d (Pharmingen part number 06032D) (antibody)”, the Absorbance (405 nm) in assay [11] was 0.857 absorbance; in assay [13], 0.524 absorbance; in [14] it was 1.56 absorbance; in assay [15], 0.098 absorbance; in assay [17], 0.305 absorbance; in assay [19] it was 1.45 absorbance. Further, the Absorbance (405 nm) in assay [20] came to 0.781 absorbance; in assay [21], 0.165 absorbance; in assay [22], 2.44 absorbance; in [23] it was 0.96 absorbance. Also, the Mean Fluorescence (mean fluorescence) in [12] came to 911; in assay [16], 418; in [18], 613.
